Changes are numbered by the printed parent chain.
T1: huCLL1-Q244-Avi-Tev-His (human, UniProt Q5QGZ9 65-265)
T1 construct: extracellular domain; also called CLL-1 K244Q
T1 sequence (looked up): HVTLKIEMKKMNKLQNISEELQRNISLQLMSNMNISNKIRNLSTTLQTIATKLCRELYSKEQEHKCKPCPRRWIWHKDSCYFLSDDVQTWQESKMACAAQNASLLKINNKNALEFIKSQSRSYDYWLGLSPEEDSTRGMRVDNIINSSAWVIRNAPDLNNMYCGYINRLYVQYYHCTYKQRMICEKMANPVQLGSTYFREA

T2: huCLL1-K244-Avi-Tev-His (human, UniProt Q5QGZ9 65-265)
T2 construct: extracellular domain
T2 sequence (looked up): T1 sequence (looked up) with Q180K

B1: Polypeptide No. 54 (scFv, V domains shown)
VH: QVQLVQSGAEVKKPGASVKVSCKASGGTFSSYAISWVRQAPGQGLEWMGWIDPKNGDTNYAQKFQGRVTMTRDTSTSTVYMELSSLRSEDTAVYYCATEGSHHPYYYYGMDVWGQGTTVTVSS
VL: DIQMTQSPSSLSASVGDRVTITCRASQGIGNWLAWYQQKPGKAPKLLIYEASTLQSGVPSRFSGSGSGTDFTLTISSLQPEDFATYYCHQYNAYPWTFGQGTKVEIKR
notes: scFv
B2: Polypeptide No. 50 (scFv, V domains shown)
VH: QVQLVQSGAEVKKPGASVKVSCKASGYTFTDYYMHWVRQAPGQGLEWMGIINPSDGSTTYAQSFQGRVTMTRDTSTSTVYMELSSLRSEDTAVYYCARDELPDSSGWYGYFQHWGQGTLVTVSS
VL: DIQMTQSPSSLSASVGDRVTITCRASQSISSWLAWYQQKPGKAPKLLIYAASSLQSGVPSRFSGSGSGTDFTLTISSLQPEDFATYYCQQSYDIPLTFGGGTKVEIKR
notes: scFv
B3: Polypeptide No. 53 (scFv, V domains shown)
VH: QVQLVQSGAEVKKPGASVKVSCKASGGTFSSYAISWVRQAPGQGLEWMGWINPDSGDASYARKFQGRVTMTRDTSTSTVYMELSSLRSEDTAVYYCATFGEEAFDIWGQGTMVTVSS
VL: B2 VL with S28N, S30G, A50G, S53I, S91A, Y92N, D93S, I94F, V104L
notes: scFv
B4: Polypeptide No. 56 (scFv, V domains shown)
VH: QVQLVQSGAEVKKPGASVKVSCKASGYTFTSYDINWVRQAPGQGLEWMGWMNPNSGNTGYAQKFQGRVTMTRDTSTSTVYMELSSLRSEDTAVYYCARVSATGTYGLDYWGQGTLVTVSS
VL: B2 VL with Q27H, A50D, S53N, Q55E, S56T, S91A, Y92D, D93S, I94F
notes: scFv
B5: Polypeptide No. 58 (scFv, V domains shown)
VH: QVQLVQSGAEVKKPGASVKVSCKASGYTFTDYYLHWVRQAPGQGLEWMGWMNPNSGNTGYAQKFQGRVTMTRDTSTSTVYMELSSLRSEDTAVYYCAADVITAYGMDVWGQGTMVTVSS
VL: DIQMTQSPSSLSASVGDRVTITCRASQGISNYLAWYQQKPGKAPKLLIYDASNLETGVPSRFSGSGSGTDFTLTISSLQPEDFATYYCQQSYNVPPTFGQGTKVEIKR
notes: scFv
B6: Polypeptide No. 52 (scFv, V domains shown)
VH: QVQLVQSGAEVKKPGASVKVSCKASGDTFTRHYVHWVRQAPGQGLEWMGIINPRGGTHYAQKFQGRVTMTRDTSTSTVYMELSSLRSEDTAVYYCARRDCSGGSCYSDLDYWGQGTLVTVSS
VL: DIQMTQSPSSLSASVGDRVTITCQASQDIHNYLNWYQQKPGKAPKLLIYQASSLESGVPSRFSGSGSGTDFTLTISSLQPEDFATYYCQQANSFPLTFGGGTKLEIKR
notes: scFv
B7: Polypeptide No. 57 (scFv, V domains shown)
VH: QVQLVQSGAEVKKPGASVKVSCKASGYTFNNYGITWVRQAPGQGLEWMGIINPITGVTTYAQNFQGRVTMTRDTSTSTVYMELSSLRSEDTAVYYCASGEQQLVLFDYWGQGTLVTVSS
VL: B6 VL with H30N, N31D, Q50G, S53N, E55Q, Q89L, A91H, F94Y, G100Q
notes: scFv
B8: Polypeptide No. 59 (scFv, V domains shown)
VH: EVQLLESGGGLVQPGGSLRLSCAASGFTFSNAWMSWVRQAPGKGLEWVADISYDGTNDYYADSVKGRFTISRDNSKNTLYLQMNSLRAEDTAVYYCTTEELRFGGFDYWGQGTLVTVSS
VL: B5 VL with G28S, N31S, A34N, S91A, Y92N, N93S, V94F, P96L
notes: scFv
B9: Polypeptide No. 51 (scFv, V domains shown)
VH: QVQLVQSGAEVKKPGSSVKVSCKASGGTFSSYAISWVRQAPGQGLEWMGEIIPFFGTANYAQKFQGRVTITADESTSTAYMELSSLRSEDTAVYYCARAEYGGDLDYWGQGTLVTVSS
VL: DIQMTQSPSSLSASVGDRVTITCQASQDISNLLNWYQQKPGKAPKLLIYAASTLQSGVPSRFSGSGSGTDFTLTISSLQPEDFATYYCQQSYNTPWTFGPGTKVDIKR
notes: scFv
B10: Polypeptide No. 55 (scFv, V domains shown)
VH: QVQLVQSGAEVKKPGASVKVSCKASGYTFTGYHMHWVRQAPGQGLEWMGWINPNTGGTNYAQKFQGRVTMTRDTSTSTVYMELSSLRSEDTAVYYCARPNTAMVPPYYYYYGMDVWGQGTLVTVSS
VL: B6 VL with H30S, Q50A, E55Q, A91Y, F94Y, G100Q
notes: scFv
B11: Polypeptide No. 87 (scFv, V domains shown)
VH: QVQLVQSGAEVKKPGASVKVSCKASGYSFTNYYIHWVRQAPGQGLEWMGWMNPYTGQTGYAQKFQGRVTMTRDTSTSTVYMELSSLRSEDTAVYYCTTDEETMDFHLWGRGTLVTVSS
VL: DIQMTQSPSSLSASVGDRVTITCZASQSISSYLNWYQQKPGKAPKLLIYDASNLETGVPSRFSGSGSGTDFTLTISSLQPEDFATYYCQQANTFPITFGQGTRLEIKR
notes: scFv
B12: Polypeptide No. 61 (scFv, V domains shown)
VH: QVQLVQSGAEVKKPGASVKVSCKASGYTFTNYYMHWVRQAPGQGLEWMGIINPSGGSTSYAQKFQGRVTMTRDTSTSTVYMELSSLRSEDTAVYYCARAEWDILTGYYIDYWGQGTLVTVSS
VL: B6 VL with H30S, Q50G, E55Q, A91H, F94Y, L96W, G100Q, L104V
notes: scFv
B13: Polypeptide No. 292 (scFv, V domains shown)
VH: QVQLVQSGAEVKKPGASVKVSCKASGYTFTSYGISWVRQAPGQGLEWMGWINPNSGGTNYAQKFQGRVTMTRDTSTSTVYMELSSLRSEDTAVYYCARQGGLRDFDYWGQGTLVTVSS
VL: DIQMTQSPSSLSASVGDRVTITCRASQSISTYVNWYQQKPGKAPKLLIYDTSSLQSGVPSRFSGSGSGTDFTLTISSLQPEDFATYYCQQSFITPPTFGQGTKLEIKR
notes: scFv
B14: Polypeptide No. 293 (scFv, V domains shown)
VH: QVQLVQSGAEVKKPGSSVKVSCKASGYMFTTPYIHWVRQAPGQGLEWMGVINPISGTTTYAQKFQGRVTITADESTSTAYMELSSLRSEDTAVYYCANDRHYDFWSGYYKEEWEYFQHWGQGTLVTVSS
VL: not shown
notes: scFv
B15: Polypeptide No. 294 (scFv, V domains shown)
VH: QVQLVQSGAEVKKPGASVKVSCKASGYTFTSNNMHWVRQAPGQGLEWMGWINLNSGGTNYAQKFQGRVTMTRDTSTSTVYMELSSLRSEDTAVYYCAKAIDYYYMDVWGKGTTVTVSS
VL: B6 VL with Q24R, D28G, H30R, Y32D, N34G, S56N, N92Y, F94L, L96W, G100Q
notes: scFv

Biological target: T1, huCLL1-Q244-Avi-Tev-His
Test: BLI
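Throughout, for result: Bio-layer interferometry with scFvs captured on biosensors via anti-V5 antibody, exposed 2 min to CLL-1 K244 or Q244 protein, 5 min dissociation, scored as binding, no binding or ambiguous.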
Protocol: (§1) Discovered scFvs were analyzed for binding to huCD33-R69-His or huCD33-G69-Fc recombinant proteins (for anti-CD33 scFvs; for CLL-1 scFvs, huCLL1-K244-Avi-Tev-His or huCLL1-Q244-Avi-Tev-His were used; for FLT3, huFLT3-T227-His or huFLT3-M227-Fc were used) using BLI on a ForteBio Octet HTX instrument. Streptavidin-coated biosensors were loaded with biotinylated anti-V5 tag monoclonal antibody for 5 min and were then quenched and blocked with 20 μM amine-PEG2-Biotin for 5 min. scFvs were captured on biosensors from scFv clone periplasmic extracts. huCD33 (or huCLL-1, or huFLT3) proteins were then associated with the captured scFvs for 2 minutes, followed by dissociation with buffer (1×HBST [10 mM HEPES pH 7.4, 150 mM NaCl, 0.05% Tween-20], 1 g/L BSA) for 5 minutes. […] Data was fitted with 1:1 Langmuir equation and off-rate values were reported.
(§2) Analogous methods were used to assess selectivity of binding of polypeptides to CLL-1 K244 or CLL-1 Q244.

Row | binding result | Binder
1 | no binding | B1
2 | no binding | B2
3 | no binding | B3
4 | no binding | B4
5 | no binding | B5
6 | no binding | B6
7 | no binding | B7
8 | no binding | B8
9 | no binding | B9
10 | no binding | B10

Biological target: T2, huCLL1-K244-Avi-Tev-His
Test: BLI
Protocol: as §1, §2

Row | binding result | Binder
11 | binds | B1
12 | no binding | B11
13 | binds | B2
14 | binds | B3
15 | binds | B4
16 | binds | B5
17 | binds | B6
18 | binds | B7
19 | binds | B8
20 | binds | B9
21 | binds | B10
22 | binds | B12

Biological target: T3, huFLT3-T227 stably expressed on Ramos cells (human, UniProt P36888 27-993)
T3 construct: whole, on cells; also called FLT3 WT
Test: FACS on cells
Protocol: (§3) For FLT3, Ramos cells were engineered to stably express either the huFLT3-T227 or huFLT3-M227 variant at >200,000 receptors per cell. Parental, huFLT3-T227, and huFLT3-M227 Ramos cell lines were stained with differing levels of CellTrace Violet Cell Proliferation Kit (ThermoFisher, cat. #C34557) to barcode each cell line. Barcoded Ramos cell lines were fixed with paraformaldehyde and incubated with myc-labeled scFv periplasmic extracts and a secondary anti-myc PE-conjugated monoclonal antibody. Appropriate positive and negative controls were used. Stained cells were analyzed by flow cytometry (CytoFLEX, Beckman Coulter, Inc.) and binding was assessed by change in PE mean fluorescence intensity (MFI) of the barcoded cell populations.

Row | FACS geometric mean fold change over Jurkat parental [fold] | Binder
23 | 2 to 10 | B13
24 | 2 to 10 | B14
25 | 10 to 30 | B15

Biological target: T4, huFLT3-M227 stably expressed on Ramos cells (human, UniProt P36888 27-993)
T4 construct: whole, on cells; also called FLT3 Mutant
Test: FACS on cells
Protocol: as §3

Row | FACS geometric mean fold change over Jurkat parental [fold] | Binder
26 | 2 to 10 | B13
27 | 2 to 10 | B14
28 | 10 to 30 | B15

Source: patent US20240101668A1 (WUGEN, published 2024)
